This assay concerns the target T1, HLA-A*02:01 (human).
T1 construct: also called HLA-A2; A2
Description: peptide loaded on Flex-T HLA-A*02:01 monomer by UV exchange; the resulting tetramer stained TCR-transduced T cells. The text has this:
HLA-A2-binding epitope of CLDN6 between CLDN6₁₃₁₋₁₄₀ was predicted using […] database. […] (CLDN6₁₃₂₋₁₄₀) (SEQ ID NO:18) peptide was synthesized by EZBiolab with 82% purity. HLA-A2/peptide monomer was generated with Flex-T HLA-A*02:01 monomer UVX followed by tetramerization using PE-streptavidin according to the manufacturer's instruction (BioLegend). CD8-TCR-or mock-transduced cells were stained with the tetramer followed by anti-CD8 antibody.

Regarding TLIPVCWTA (Synthetic peptide, 82% purity) [CLDN6132-140 peptide], the binding result is reported as “binds”.

For the origin of these results see patent US20250057881A1 (ROSWELL PARK CANCER INSTITUTE, published 2025).
